Measurements from patent publication US20200190192A1 (SUTRO BIOPHARMA, published 2020).

T1: cynomolgus Tim-3 expressed on CHO cells (cynomolgus monkey)
T1 construct: also called cTim-3; Cyno Tim-3 (CHO)
T1 chain: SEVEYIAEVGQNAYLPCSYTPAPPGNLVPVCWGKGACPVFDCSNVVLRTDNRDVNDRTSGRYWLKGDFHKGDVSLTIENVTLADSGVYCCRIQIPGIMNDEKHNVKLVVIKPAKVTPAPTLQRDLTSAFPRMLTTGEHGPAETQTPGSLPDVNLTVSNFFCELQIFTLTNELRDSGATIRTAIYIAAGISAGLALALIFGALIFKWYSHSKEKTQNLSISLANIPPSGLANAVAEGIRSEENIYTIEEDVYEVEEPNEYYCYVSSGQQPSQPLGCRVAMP


Legend:
[1] = biological target: T2, human Tim-3 expressed on the cell surface (human, UniProt Q8TDQ0 22-301); test: flow cytometry, CHO-human Tim-3 cells;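 note: antibodies bound on ice for 60 min, detected by PE anti-human IgG Fc secondary, mean fluorescence intensity fit to one-site specific binding with Hill slope, parental CHO cells as nonspecific control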
T2 construct: also called hTim-3; Human Tim-3 (CHO)

[2] = biological target: T3, recombinant human Tim-3-Fc (R&D Systems, 2365-TM) (human, UniProt Q8TDQ0 22-202, biotinylated in the Galectin-9 competition ELISA (sites not given)); test: SPR Biacore, human Tim-3 Fc;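 note: antibodies captured on an anti-FLAG sensor surface, Tim-3-Fc flowed over as analyte at 25 °C in HBS-EP+ buffer, rates fit with a 1:1 Langmuir model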
T3 construct: Bought protein; also called huTim-3-Fc; biotinylated Tim-3-Fc; not shown: Fc of the bought fusion protein

[3] = biological target: T1, cynomolgus Tim-3 expressed on CHO cells; test: flow cytometry, CHO-cyno Tim-3 cells
[4] = biological target: T3, recombinant human Tim-3-Fc (R&D …); test: SPR Biacore, human Tim-3 Fc; KD estimated
[5] = biological target: T2, human Tim-3 expressed on the cell …; test: flow cytometry, activated human CD4+ T cells

| Binder | Kd [1] | koff [2] | Kd [3] | Kd [4] | Kd [5] |
| --- | --- | --- | --- | --- | --- |
| h22E11-VK3-11 × h22E11-VH3-23 (antibody, V domains shown, Humanized m22E11) VH: EVQLLESGGGLVQPGGSLRLSCAVSGFSLTSYGVHWVRQAPGKGLEWLVVIWSDGSTTYNDSVKGRFTISKDNSKNTVYLQMNSLRAEDTAVYYCARQGGYRYDDAMDYWGQGTLVTVSS VL: EIVLTQSPATLSLSPGERATLSCKASQSVDYDGNSYVNWYQQKPGQAPRLLIYAASNLESGIPARFSGSGSGTDFTLTISSLEPEDFAVYYCQQSNEDPYTFGQGTKVEIK | 0.7 nM | 0.000934 s⁻¹ | 6.9 nM | 5.3 nM | 0.9 nM |
| h22E11-VK3-11 × h22E11-VH5-51 (antibody, V domains shown, Humanized m22E11) VH: EVQLVQSGAEVKKPGESLKISCKVSGFSLTSYGVHWVRQMPGKGLEWLVVIWSDGSTTYNPSFQGQVTISKDKSISTVYLQWSSLKASDTAMYYCARQGGYRYDDAMDYWGQGTLVTVSS VL: EIVLTQSPATLSLSPGERATLSCKASQSVDYDGNSYVNWYQQKPGQAPRLLIYAASNLESGIPARFSGSGSGTDFTLTISSLEPEDFAVYYCQQSNEDPYTFGQGTKVEIK | 0.8 nM | 0.000875 s⁻¹ | 2.7 nM | 4.3 nM | 0.6 nM |
| h22E11-5-IgG-LC × h22E11-VH5-51 (antibody, V domains shown, Humanized m22E11) VH: EVQLVQSGAEVKKPGESLKISCKVSGFSLTSYGVHWVRQMPGKGLEWLVVIWSDGSTTYNPSFQGQVTISKDKSISTVYLQWSSLKASDTAMYYCARQGGYRYDDAMDYWGQGTLVTVSS VL: EIVLTQSPGTLSLSPGERATLSCKASQSVDYDGNSYVAWYQQKPGQAPRLLIYAASNLESGIPDRFSGSGSGTDFTLTISRLEPEDFAVYYCQQSNEDPYTFGQGTKVEIK | – | 0.0011 s⁻¹ | – | 5 nM | – |
| h22E11-5-IgG-LC × h22E11-VH3-23 (antibody, V domains shown, Humanized m22E11) VH: EVQLLESGGGLVQPGGSLRLSCAVSGFSLTSYGVHWVRQAPGKGLEWLVVIWSDGSTTYNDSVKGRFTISKDNSKNTVYLQMNSLRAEDTAVYYCARQGGYRYDDAMDYWGQGTLVTVSS VL: EIVLTQSPGTLSLSPGERATLSCKASQSVDYDGNSYVAWYQQKPGQAPRLLIYAASNLESGIPDRFSGSGSGTDFTLTISRLEPEDFAVYYCQQSNEDPYTFGQGTKVEIK | 0.8 nM | 0.000895 s⁻¹ | 13.2 nM | 5.3 nM | 1.2 nM |
| h22E11-VK4-1 × h22E11-VH4-30-4 (antibody, V domains shown, Humanized m22E11) VH: QVQLQESGPGLVKPSQTLSLTCTVSGFSLTSYGVHWIRQPPGKGLEWLVVIWSDGSTTYNPSLKSRVTISKDTSKNQVSLKLSSVTAADTAVYYCARQGGYRYDDAMDYWGQGTLVTVSS VL: DIVLTQSPDSLAVSLGERATINCKASQSVDYDGNSYVNWYQQKPGQPPKLLIYAASNLESGVPDRFSGSGSGTDFTLTISSLQAEDVAVYYCQQSNEDPYTFGQGTKVEIK | 1.1 nM | 0.00119 s⁻¹ | 5 nM | 8.1 nM | 5.7 nM |
| h22E11-VK4-1 × h22E11-VH5-51 (antibody, V domains shown, Humanized m22E11) VH: EVQLVQSGAEVKKPGESLKISCKVSGFSLTSYGVHWVRQMPGKGLEWLVVIWSDGSTTYNPSFQGQVTISKDKSISTVYLQWSSLKASDTAMYYCARQGGYRYDDAMDYWGQGTLVTVSS VL: DIVLTQSPDSLAVSLGERATINCKASQSVDYDGNSYVNWYQQKPGQPPKLLIYAASNLESGVPDRFSGSGSGTDFTLTISSLQAEDVAVYYCQQSNEDPYTFGQGTKVEIK | 0.8 nM | 0.000881 s⁻¹ | 1.9 nM | 4.8 nM | 0.6 nM |
| h22E11-VK3-11 × h22E11-VH4-30-4 (antibody, V domains shown, Humanized m22E11) VH: QVQLQESGPGLVKPSQTLSLTCTVSGFSLTSYGVHWIRQPPGKGLEWLVVIWSDGSTTYNPSLKSRVTISKDTSKNQVSLKLSSVTAADTAVYYCARQGGYRYDDAMDYWGQGTLVTVSS VL: EIVLTQSPATLSLSPGERATLSCKASQSVDYDGNSYVNWYQQKPGQAPRLLIYAASNLESGIPARFSGSGSGTDFTLTISSLEPEDFAVYYCQQSNEDPYTFGQGTKVEIK | 1 nM | 0.00107 s⁻¹ | 4.5 nM | 7.2 nM | 7.1 nM |
| h22E11-5-IgG-LC × h22E11-VH4-30-4 (antibody, V domains shown, Humanized m22E11) VH: QVQLQESGPGLVKPSQTLSLTCTVSGFSLTSYGVHWIRQPPGKGLEWLVVIWSDGSTTYNPSLKSRVTISKDTSKNQVSLKLSSVTAADTAVYYCARQGGYRYDDAMDYWGQGTLVTVSS VL: EIVLTQSPGTLSLSPGERATLSCKASQSVDYDGNSYVAWYQQKPGQAPRLLIYAASNLESGIPDRFSGSGSGTDFTLTISRLEPEDFAVYYCQQSNEDPYTFGQGTKVEIK | 3.7 nM | 0.00117 s⁻¹ | – | 7.6 nM | – |
| h22E11-VK4-1 × h22E11-5-IgG-HC (antibody, V domains shown, Humanized m22E11) VH: EVQLVESGGGLVQPGGSLRLSCAVSGFSLTSYGVHWVRQAPGKGLEWLVVIWSDGSTTYNSALKSRFTISKDNAKNSVYLQMNSLRAEDTAVYYCARQGGYRYDDAMDYWGQGTLVTVSS VL: DIVLTQSPDSLAVSLGERATINCKASQSVDYDGNSYVNWYQQKPGQPPKLLIYAASNLESGVPDRFSGSGSGTDFTLTISSLQAEDVAVYYCQQSNEDPYTFGQGTKVEIK | 0.8 nM | 0.000973 s⁻¹ | 5.3 nM | 5.7 nM | 1.4 nM |
| h22E11-VK1-39 × h22E11-VH1-69 (antibody, V domains shown, Humanized m22E11) VH: QVQLVQSGAEVKKPGSSVKVSCKVSGFSLTSYGVHWVRQAPGQGLEWLVVIWSDGSTTYNQKFQGRVTITKDESTSTVYMELSSLRSEDTAVYYCARQGGYRYDDAMDYWGQGTLVTVSS VL: DIQLTQSPSSLSASVGDRVTITCKASQSVDYDGNSYVNWYQQKPGKAPKLLIYAASNLESGVPSRFSGSGSGTDFTLTISSLQPEDFATYYCQQSNEDPYTFGQGTKVEIK | 0.6 nM | 0.00094 s⁻¹ | 1.7 nM | 6 nM | 2.6 nM |
| h22E11-VK1-39 × h22E11-VH4-30-4 (antibody, V domains shown, Humanized m22E11) VH: QVQLQESGPGLVKPSQTLSLTCTVSGFSLTSYGVHWIRQPPGKGLEWLVVIWSDGSTTYNPSLKSRVTISKDTSKNQVSLKLSSVTAADTAVYYCARQGGYRYDDAMDYWGQGTLVTVSS VL: DIQLTQSPSSLSASVGDRVTITCKASQSVDYDGNSYVNWYQQKPGKAPKLLIYAASNLESGVPSRFSGSGSGTDFTLTISSLQPEDFATYYCQQSNEDPYTFGQGTKVEIK | 0.7 nM | 0.00126 s⁻¹ | 5.5 nM | 9.1 nM | – |
| h22E11-VK3-11 × h22E11-VH1-69 (antibody, V domains shown, Humanized m22E11) VH: QVQLVQSGAEVKKPGSSVKVSCKVSGFSLTSYGVHWVRQAPGQGLEWLVVIWSDGSTTYNQKFQGRVTITKDESTSTVYMELSSLRSEDTAVYYCARQGGYRYDDAMDYWGQGTLVTVSS VL: EIVLTQSPATLSLSPGERATLSCKASQSVDYDGNSYVNWYQQKPGQAPRLLIYAASNLESGIPARFSGSGSGTDFTLTISSLEPEDFAVYYCQQSNEDPYTFGQGTKVEIK | 1 nM | 0.000867 s⁻¹ | 2.8 nM | 4.9 nM | 4 nM |
| h22E11-5-IgG-LC × h22E11-VH1-69 (antibody, V domains shown, Humanized m22E11) VH: QVQLVQSGAEVKKPGSSVKVSCKVSGFSLTSYGVHWVRQAPGQGLEWLVVIWSDGSTTYNQKFQGRVTITKDESTSTVYMELSSLRSEDTAVYYCARQGGYRYDDAMDYWGQGTLVTVSS VL: EIVLTQSPGTLSLSPGERATLSCKASQSVDYDGNSYVAWYQQKPGQAPRLLIYAASNLESGIPDRFSGSGSGTDFTLTISRLEPEDFAVYYCQQSNEDPYTFGQGTKVEIK | 0.9 nM | 0.000991 s⁻¹ | 3 nM | 4.9 nM | 1.6 nM |
